{"source": "patent US20050244966A1", "about": "“Insulin producing cells” (Ramot At Tel Aviv University Ltd., priority 2003, published 2005)", "key": {"FH-B-TPN cells [1]": {"test_system": "FH-B-TPN cells", "experiment": "Insulin content of FH-B-TPN cells (RIA/ELISA of cell extracts)", "type": "cell-based, human", "details": "for Insulin content: RIA; for Fold increase (insulin content): vs CM", "procedure": "FH cells were isolated and cultured as described (19), in Dulbecco's modified Eagle's medium containing 25 mM glucose and supplemented with 10% fetal bovine serum (FBS), 100 U/ml penicillin, 100 μg/ml streptomycin, 5 μM hydrocortisone, and 5 μg/ml insulin. A subclone of FH cells that was stably transduced with hTERT, designated FH-B-hTERT (FH-B), was cultured in the same medium, as described (20). FH-B cells transduced with the Pdx1 gene (see below), designated FH-B-TPN cells, were maintained in the same culture medium, with the exception of hydrocortisone and insulin (complete medium CM). For incubation in serum-free medium, the cells were placed in DMEM containing antibiotics, in the presence of 100 ng/ml insulin, 55 ng/ml transferrin, and 50 pg/ml selenium (ITS, Sigma). For all experiments activin A (Cytolab/PreproTech Asia, Rehovot, Israel) was added at a final concentration of 4 nM. except for those aimed at promoting differentiation of FH-B-TPN cells towards the beta-cell phenotype. There, addition of Act-A, as well as betacellulin (BTC, R&D Systems, Minneapolis, Minn.), nicotinamide (NA), exendin-4, and hepatocyte growth factor (HGF) (the last 3 compounds from Sigma-Aldrich) was at concentrations detailed herein below.\n(§1) Insulin secretion from FH-B-TPN cells was measured by static incubation as previously described (2). Cells were plated in 24-well plates at 10^5 cells per well. The cells were preincubated for 1 hour in Krebs-Ringer buffer (KRB), followed by incubation for the indicated period of time in KRB containing 0.5 mM 1-isobutyl 3-methylxanthine (IBMX) and glucose at various concentrations. The cells were then extracted in acetic acid, and the amount of insulin in the buffer and cell extract was determined by radioimmunoassay (RIA) using the INSIK-5 kit (DiaSorin, Vercelli, Italy) according to the manufacturer. This assay has <20% crossreactivity with proinsulin. In addition, insulin content was determined using an ELISA kit (Diagnostic Systems Laboratories, Webster, Tex. or (Mercodia, Uppsala, Sweden), which recognizes only mature insulin. Insulin content was normalized to total cellular protein, measured by the Bio-Rad (Hercules, Calif.) Protein Assay kit. Human C-peptide in the cell extract was determined using a RIA kit (DiaSorin, Vercelli, Italy) or ELISA kit (Mercodia, Uppsala, Sweden) according to the manufacturers."}, "FH-B-TPN cells [2]": {"test_system": "FH-B-TPN cells", "experiment": "Immunofluorescence analyses of protein expression in FH-B-TPN cells", "type": "cell-based, human", "details": "6 days in serum-free medium with ITS and activin A; FIG. 8", "procedure": "FH-B-TPN cells plated in 6-well plates on sterilized coverslips were fixed in 4% paraformaldehyde. For cytoplasmic antigens, cells were blocked for 10 min at room temperature in 5% bovine serum albumin, 5% FBS and 0.1% Triton X-100, and stained with the antibodies as detailed in Table 2 diluted in blocking solution, for 1 hour at room temperature.\nFor immunostaining of nuclear antigens, cells were permeabilized in 0.25% NP40 for 10 min at room temperature prior to blocking, followed by incubation with the primary antibody as detailed in Table 2 hereinabove. The stained cells were photographed under a Zeiss confocal microscope. FH-B, Cos7 or 293T cells were used as negative controls. Nuclei were visualized with DAPI (Roche) staining for 5 minutes at room temperature. Kidney tissue was fixed in 4% paraformaldehyde, embedded in paraffin, and sectioned. Sections were rehydrated, washed in PBS, and unmasked (if needed) in Unmasking Solution (Vector Laboratories, Burlingame, Calif.) according to the manufacturer. Sections were blocked for 2 h in 0.2% Tween 20 and 0.2% gelatin, incubated overnight at 4° C. with primary antibodies and 2 h at room temperature with the secondary antibodies as detailed in Table 2 hereinabove, stained with DAPI, and mounted. BrdU staining was performed as previously described (28b)."}, "FH-B-TPN cells [3]": {"test_system": "FH-B-TPN cells", "experiment": "RT-PCR analysis of gene expression in FH-B-TPN cells", "type": "cell-based, human", "details": "4 nM activin A; FIG. 7", "procedure": "Total RNA was extracted from cultured cells, mature human hepatocytes (obtained from Incara Cell Technologies, North Carolina), and human pancreatic islets (obtained through the Juvenile Diabetes Research Foundation Islet Distribution Program), using commercial kits (High Pure RNA isolation kit, Roche Molecular Biochemicals, Mannhein, Germany; Trizol Reagent, Invitrogen Life Technologies, Carlsbad, Calif.).\nSpecific transcripts were analyzed with Promega (Madison, Wis.) RT-PCR kit or GeneAmp Gold RNA PCR kit (Perkin Elmer Corp., Indianapolis, Ind.) or Superscript III RT-PCR (Invitrogene Life Technologies, Carlsbad, Calif.) according to the manufacturers. The absence of DNA contamination in RNA samples was confirmed with PCR primers flanking an intron. cDNA was amplified for 40 cycles (94° C. for 45 sec; annealing under conditions indicated in Table 1 below for 45 sec; 72° C. for 40 sec), using the primer pairs listed in Table 1 below.\nPCR products were separated by electrophoresis in 1.5%-2.5% agarose gels and visualized by ethidium bromide staining."}, "FH-B-TPN cells [4]": {"test_system": "FH-B-TPN cells", "experiment": "Human C-peptide in cell extract and culture medium (ELISA)", "type": "cell-based", "details": "SFM (6 d) then 3 nM Act-A in SFM (3 d)", "procedure": "as §1"}, "FH-B-TPN cells [5]": {"test_system": "FH-B-TPN cells", "experiment": "Cell doubling time by cell counting; TUNEL assay", "type": "cell-based, human", "from_the_text": "The cell doubling time, as determined by cell counting, was not affected by Act-A treatment in CM. […] No apoptotic cells were detected using a TUNEL assay under any of the conditions (data not shown)."}, "[6]": {"details": "FH-B-TPN cells, 4 nM in CM (6 d)"}, "[7]": {"details": "SFM (6 d) then 3 nM Act-A in SFM (3 d)"}}, "data": [{"molecule": "betacellulin (protein, UniProt P35070 32-111, looked up, betacellulin (R&D Systems), soluble factor) Betacellulin: DGNSTRSPETNGLLCGDPEENCAATTTQSKRKGHFSRCPKQYKHYCIKGRCRFVVAEQTPSCVCDEGYIGARCERVDLFY", "values": [{"measurement": "Insulin content", "setting": "FH-B-TPN cells [1]; [6]", "value": "264 ± 7", "unit": "ng/10^6 cells"}, {"measurement": "Fold increase (insulin content)", "setting": "FH-B-TPN cells [1]; [6]", "value": 1.4}]}, {"molecule": "activin A (protein, UniProt P08476 311-426, looked up) Inhibin beta A chain: GLECDGKVNICCKKQFFVSFKDIGWNDWIIAPSGYHANYCEGECPSHIAGTSGSSLSFHSTVINHYRMRGHSPFANLKSCCVPTKLRPMSMLYYDDGQNIIKKDIQNMIVEECGCS", "values": [{"measurement": "PP staining", "setting": "FH-B-TPN cells [2]", "value": "disappeared"}, {"measurement": "Percent of cells stained for GK, PC1/3, and PC2", "setting": "FH-B-TPN cells [2]", "value": "increase"}, {"measurement": "Percent of cells stained for NGN3", "setting": "FH-B-TPN cells [2]", "value": "significant decrease"}, {"measurement": "Percentage of cells stained for ISL1, NKX6.1, and NKX2.2", "setting": "FH-B-TPN cells [2]", "value": "significant increase"}, {"measurement": "Insulin content compared with serum-free medium without activin A", "setting": "FH-B-TPN cells [1]; 6 days in serum-free medium supplemented with both ITS and activin A", "value": "further doubling"}, {"measurement": "Insulin content", "setting": "FH-B-TPN cells [1]; [6]", "value": "729 ± 55", "unit": "ng/10^6 cells"}, {"measurement": "Insulin content", "setting": "FH-B-TPN cells [1]; FH-B-TPN cells, Act-A 3 nM in CM (3 d) + CM (6 d), mean ± SD (n = 3)", "value": "1661 ± 319", "unit": "ng/10^6 cells"}, {"measurement": "Fold increase (insulin content)", "setting": "FH-B-TPN cells [1]; FH-B-TPN cells, Act-A 3 nM in CM (3 d) + CM (6 d)", "value": 8.8}, {"measurement": "Insulin content", "setting": "FH-B-TPN cells [1]; FH-B-TPN cells, Act-A 3 nM in CM (3 d) + SFM (6 d), mean ± SD (n = 3)", "value": "1493 ± 229", "unit": "ng/10^6 cells"}, {"measurement": "Fold increase (insulin content)", "setting": "FH-B-TPN cells [1]; FH-B-TPN cells, Act-A 3 nM in CM (3 d) + SFM (6 d)", "value": 7.9}, {"measurement": "Insulin content", "setting": "FH-B-TPN cells [1]; FH-B-TPN cells, Act-A 3 nM in CM (3 d), mean ± SD (n = 3)", "value": "1399 ± 269", "unit": "ng/10^6 cells"}, {"measurement": "Fold increase (insulin content)", "setting": "FH-B-TPN cells [1]; FH-B-TPN cells, Act-A 3 nM in CM (3 d)", "value": 7.4}, {"measurement": "Insulin content", "setting": "FH-B-TPN cells [1]; FH-B-TPN cells, Act-A 3 nM in SFM (3 d), mean ± SD (n = 3)", "value": "2143 ± 179", "unit": "ng/10^6 cells"}, {"measurement": "Fold increase (insulin content)", "setting": "FH-B-TPN cells [1]; FH-B-TPN cells, Act-A 3 nM in SFM (3 d)", "value": 11.4}, {"measurement": "Concentration giving maximal (optimal) increase in insulin content", "setting": "FH-B-TPN cells [1]; FH-B-TPN cells, Act-A 1-8 nM in regular medium (CM) for 6 days, FIG. 9", "value": 3, "unit": "nM"}, {"measurement": "Fold increase (insulin content)", "setting": "FH-B-TPN cells [1]; FH-B-TPN cells, SFM (6 d) + Act-A 3 nM in SFM (3 d)", "value": 33}, {"measurement": "Increase over insulin content of cells incubated 9 days in SFM without Act-A", "setting": "FH-B-TPN cells [1]; [7]", "value": 2.6, "unit": "fold"}, {"measurement": "Insulin content as share of the cellular protein content", "setting": "FH-B-TPN cells [1]; [7]", "value": 6, "unit": "%"}, {"measurement": "Insulin content relative to normal human pancreatic islets", "setting": "FH-B-TPN cells [1]; [7]", "value": "about 60%"}, {"measurement": "Share of stored insulin in the form of mature protein (ELISA vs RIA)", "setting": "FH-B-TPN cells [1]; [7]", "value": 95, "unit": "%"}, {"measurement": "Glucagon mRNA", "setting": "FH-B-TPN cells [3]", "value": "disappeared after an overnight treatment"}, {"measurement": "PAX4 and GLUT2 mRNAs", "setting": "FH-B-TPN cells [3]", "value": "appeared following 3 days of treatment"}, {"measurement": "Human C-peptide secreted into the culture medium", "setting": "FH-B-TPN cells [4]", "value": "43.5±1.3", "unit": "ng/10^6 cells"}, {"measurement": "Human C-peptide levels in cells", "setting": "FH-B-TPN cells [4]; ELISA", "value": "5153±180", "unit": "ng/10^6 cells"}, {"measurement": "Cell doubling time compared with cells growing in CM", "setting": "FH-B-TPN cells [5]", "value": "not affected"}]}]}
